T1: MAGE-B2 (peptide MB2-231) peptide on HLA-A*02:01 (human)
T1 peptide: GVYDGEEHSV


Biological target: T1, MAGE-B2 (peptide MB2-231) peptide on …
Experiment: multimer staining

Binder | binding result
MAGE-B2-231 C5 TCR (TCR, V domains shown) Valpha: KNQVEQSPQSLIILEGKNCTLQCNYTVSPFSNLRWYKQDTGRGPVSLTIMTFSENTKSNGRYTATLDADTKQSSLHITASQLSDSASYICVVISGFQKLVFGTGTRLLVSP Vbeta: EAGVVQSPRYKIIEKKQPVAFWCNPISGHNTLYWYRQNLGQGPELLIRYENEEAVDDSQLPKDRFSAERLKGVDSTLKIQPAELGDSAVYLCASSFPKQGSYNEQFFGPGTRLTVL | recognises
MAGE-B2 TCR of SEQ ID NOs 3 and 5 (TCR, V domains shown) Valpha: GNSVTQMEGPVTLSEEAFLTINCTYTATGYPSLFWYVQYPGEGLQLLLKATKADDKGSNKGFEATYRKETTSFHLEKGSVQVSDSAVYFCALTNDYKLSFGAGTTVTVRA Vbeta: DAMVIQNPRYQVTQFGKPVTLSCSQTLNHNVMYWYQQKSSQAPKLLFHYYDKDFNNEADTPDNFQSRRPNTSFCFLDIRSPGLGDAAMYLCATSRGGRYNEQFFGPGTRLTVL | recognises

— patent US20210363215A1 (published 2021)
